Paper PMC10397247

Key:
P9mSN = molecular target: T1, P9mSN; test: two-hybrid library CCNG1;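 also: natural log of median RNA to DNA barcode read ratio; higher means stronger binding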
T1 chain: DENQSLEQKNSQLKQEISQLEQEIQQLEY

4H72-bN = molecular target: T2, 4H72-bN; test: two-hybrid library CCNG1;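 also: natural log of median RNA to DNA barcode read ratio; higher means stronger binding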
T2 chain: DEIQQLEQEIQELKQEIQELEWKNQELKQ

4H953-bN = molecular target: T3, 4H953-bN; test: two-hybrid library CCNG1;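 also: natural log of median RNA to DNA barcode read ratio; higher means stronger binding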
T3 chain: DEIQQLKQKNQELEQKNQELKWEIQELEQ

4H462-bN = molecular target: T4, 4H462-bN; test: two-hybrid library CCNG1;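 also: natural log of median RNA to DNA barcode read ratio; higher means stronger binding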
T4 chain: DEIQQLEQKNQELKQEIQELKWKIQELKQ

4H370-bN = molecular target: T5, 4H370-bN; test: two-hybrid library CCNG1;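 also: natural log of median RNA to DNA barcode read ratio; higher means stronger binding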
T5 chain: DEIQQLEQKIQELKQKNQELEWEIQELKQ

4H3606-bN = molecular target: T6, 4H3606-bN; test: two-hybrid library CCNG1; details: mean of both orientations;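 also: natural log of median RNA to DNA barcode read ratio; higher means stronger binding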
T6 chain: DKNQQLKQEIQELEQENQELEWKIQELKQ

4H568-bN = molecular target: T7, 4H568-bN; test: two-hybrid library CCNG1
T7 chain: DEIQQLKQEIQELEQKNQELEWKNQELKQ

4H967-bN = molecular target: T8, 4H967-bN; test: two-hybrid library CCNG1
T8 chain: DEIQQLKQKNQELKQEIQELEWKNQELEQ

4H607-bN = molecular target: T9, 4H607-bN; test: two-hybrid library CCNG1
T9 chain: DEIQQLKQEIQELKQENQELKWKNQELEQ

4H687-bN = molecular target: T10, 4H687-bN; test: two-hybrid library CCNG1
T10 chain: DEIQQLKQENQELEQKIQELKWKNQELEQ

4H883-bN = molecular target: T11, 4H883-bN; test: two-hybrid library CCNG1
T11 chain: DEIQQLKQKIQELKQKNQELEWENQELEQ

4H797-bN = molecular target: T12, 4H797-bN; test: two-hybrid library CCNG1
T12 chain: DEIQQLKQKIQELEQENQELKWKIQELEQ

4H4001-bN = molecular target: T13, 4H4001-bN; test: two-hybrid library CCNG1
T13 chain: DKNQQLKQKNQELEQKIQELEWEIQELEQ

4H3782-bN = molecular target: T14, 4H3782-bN; test: two-hybrid library CCNG1
T14 chain: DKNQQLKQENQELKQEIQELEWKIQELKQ

4H3843-bN = molecular target: T15, 4H3843-bN; test: two-hybrid library CCNG1
T15 chain: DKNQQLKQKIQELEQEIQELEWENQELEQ

4H918-bN = molecular target: T16, 4H918-bN; test: two-hybrid library CCNG1
T16 chain: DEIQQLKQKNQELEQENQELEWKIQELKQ

APC4436-AA = molecular target: T17, APC4436-AA; test: two-hybrid library CCmax; details: mean of both orientations
T17 chain: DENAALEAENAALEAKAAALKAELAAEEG

APC4264-AA = molecular target: T18, APC4264-AA; test: two-hybrid library CCmax; details: mean of both orientations
T18 chain: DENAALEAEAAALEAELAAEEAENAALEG

APC6108-AA = molecular target: T19, APC6108-AA; test: two-hybrid library CCmax; details: mean of both orientations
T19 chain: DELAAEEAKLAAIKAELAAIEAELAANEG

APC5383-AA = molecular target: T20, APC5383-AA; test: two-hybrid library CCmax; details: mean of both orientations
T20 chain: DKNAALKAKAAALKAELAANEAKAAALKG

APC232-AA = molecular target: T21, APC232-AA; test: two-hybrid library CCmax; details: mean of both orientations
T21 chain: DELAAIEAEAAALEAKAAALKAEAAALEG

APC1434-AA = molecular target: T22, APC1434-AA; test: two-hybrid library CCmax
T22 chain: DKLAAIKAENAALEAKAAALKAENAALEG

APC3645-AA = molecular target: T23, APC3645-AA; test: two-hybrid library CCmax; details: mean of both orientations
T23 chain: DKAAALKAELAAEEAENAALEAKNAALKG

APC9319-AA = molecular target: T24, APC9319-AA; test: two-hybrid library CCmax; details: mean of both orientations
T24 chain: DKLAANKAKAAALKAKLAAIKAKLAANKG

APC8910-AA = molecular target: T25, APC8910-AA; test: two-hybrid library CCmax; details: mean of both orientations
T25 chain: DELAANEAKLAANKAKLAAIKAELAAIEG

APC2405-AA = molecular target: T26, APC2405-AA; test: two-hybrid library CCmax; details: mean of both orientations
T26 chain: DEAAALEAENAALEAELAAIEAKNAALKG

APC7099-AA = molecular target: T27, APC7099-AA; test: two-hybrid library CCmax; details: mean of both orientations
T27 chain: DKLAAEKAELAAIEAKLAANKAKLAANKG

APC2237-AA = molecular target: T28, APC2237-AA; test: two-hybrid library CCmax; details: mean of both orientations
T28 chain: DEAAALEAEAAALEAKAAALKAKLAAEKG

APC4011-AA = molecular target: T29, APC4011-AA; test: two-hybrid library CCmax; details: mean of both orientations
T29 chain: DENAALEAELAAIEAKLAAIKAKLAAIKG

APC9096-AA = molecular target: T30, APC9096-AA; test: two-hybrid library CCmax; details: mean of both orientations
T30 chain: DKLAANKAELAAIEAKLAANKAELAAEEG

APC8191-AA = molecular target: T31, APC8191-AA; test: two-hybrid library CCmax; details: mean of both orientations
T31 chain: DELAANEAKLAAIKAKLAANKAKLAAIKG

## DENQSLEQKNSQLKQEISQLEQEIQQLEY [P9mSN]
P9mSN
  interaction score: -1.56

## DKNQQLKQEIQELEQENQELEWKIQELKQ [4H3606-bN]
4H72-bN
  interaction score: -0.312
4H953-bN
  interaction score: -0.614
4H462-bN
  interaction score: -0.288
4H370-bN
  interaction score: -0.0845
4H3606-bN
  interaction score: -0.385
4H568-bN
  interaction score: 1.07
4H967-bN
  interaction score: -1.43
4H607-bN
  interaction score: 0.0432
4H687-bN
  interaction score: 0.128
4H883-bN
  interaction score: -1.5
4H797-bN
  interaction score: -0.386
4H4001-bN
  interaction score: -0.219
4H3782-bN
  interaction score: -0.77
4H3843-bN
  interaction score: -0.0433
4H918-bN
  interaction score: -0.149

## DKLAAIKAENAALEAKAAALKAENAALEG [APC1434-AA]
APC4436-AA
  interaction score: -1.61
APC4264-AA
  interaction score: -1.64
APC6108-AA
  interaction score: -1.79
APC5383-AA
  interaction score: -1.97
APC232-AA
  interaction score: -1.48
APC1434-AA
  interaction score: -1.78
APC3645-AA
  interaction score: -1.31
APC9319-AA
  interaction score: -1.75
APC8910-AA
  interaction score: -1.81
APC2405-AA
  interaction score: -1.36
APC7099-AA
  interaction score: -1.28
APC2237-AA
  interaction score: -1.66
APC4011-AA
  interaction score: -1.72
APC9096-AA
  interaction score: -1.36
APC8191-AA
  interaction score: -1.74
